# Data from paper PMC10099132, “Sequence and Structural Motifs Controlling the Broad Substrate Specificity of the Mycobacterial Hormone-Sensitive Lipase LipN” (ACS Omega, 2023).
# B1: MmLipN (LipN from M. marinum) (Mycobacterium marinum M) (protein)
# chain: MTNSLPGETDLHPETVHATMSWLSRVQNTVTVVGAKVIPWVPDVAKRLITRGRSVIIDGNTLDPALQLMLSGMRVVGLDGLVIDDDLAASRAHMREAMLGFPGPQIHVDVEELTLPGPAGDISARHYRPPGDAAAPLLVFYHGGGWALGDLDTHDAVCRLTCRDAGIHVLAIDYRLSPEDRAPAAIDDAFAAFEWAHAHAAELGALPGRVAVGGDSAGGNLAAVVSQLARDSGGPAPIFQWLIYPRTDFAGRTRSASLFARGFLLTKRDIDWFHSQYLKGSGIEPTDPRVSPLRAESLAGLAPALIAVAGFDPLRDEGENYATALRAAGTPVDLRAMGSLTHGFLNLFPLGGGCAAATSELISALRAHLTRV
# notes: E. coli LOBSTR (DE3); Ni-NTA
# Assays:
# Experiment in all cases: purified protein, by the assay type
# Set-up in all cases: fluorogenic ester hydrolysis, fluorescein release, Michaelis-Menten fit of initial rates
# [1] = substrate: CC1(C(=O)OCOc2ccc3c(c2)Oc2cc(OCOC(=O)C4(C)CC4(Cl)Cl)ccc2C32OC(=O)c3ccccc32)CC1(Cl)Cl
# Description: (§1) The enzyme kinetic activity of LipN was assayed via the hydrolysis of the fluorogenic substrates (Figure 1) in accordance with past kinetic analysis of mycobacterial serine hydrolases.[37],[38],[40],[66],[67] Kinetic assays were run in triplicate on black 96-well plates in a Synergy H1 Hybrid Reader (BioTek). Fluorogenic ester substrates (10 mM in DMSO) were diluted to a starting concentration of 100 μM in PBS containing acetylated BSA (Sigma; 0.1 mg/mL). Eight serial dilutions (1:1; 120 μL into 240 μL total volume) of each substrate were made using PBS–BSA. Fluorogenic substrate dilutions (95 μL) were then transferred to opaque 96-well microplate (Corning, Lowell, MA). Reactions were initiated by quickly adding enzyme (5 μL, 3.0 nM final concentration) to each assay well, mixed, and the fluorescence counts measured every 26–30 s for 4.5 min with a BioTek H1 Synergy multimode plate reader (Biotek Instruments; Winooski, VT) at ambient temperature. The instrument measured relative fluorescence through excitation at λ = 485 nm and emission at λ = 520 nm. The fluorescence change was converted to molar concentrations using a fluorescein standard curve (300–2.3 nM), whose fluorescence was measured simultaneously. The initial rates of the enzyme-catalyzed reactions were measured in triplicate and plotted versus fluorogenic substrate concentration. […] (A) Activation of fluorogenic ester substrates by MmLipN. Each of the substrates is composed of diacyloxymethyl ether fluorescein with varying R-groups. The differing R-groups have been organized into classes and colored based on chemical functionality. All of the substrates were synthesized as described previously.[38],[43] Substrates 6, 10–11, 14–15, 20, 23–30, and 33 were newly synthesized for this characterization of MmLipN. Detailed synthetic characterization is provided in the Supporting Information. (B) Global comparison of the catalytic specificity (kcat/KM) of MmLipN against each of the 33 substrates with ester classes labeled. Catalytic efficiency values (kcat/Km) are given ± SD based on at least three independent kinetic replicates. (C, D) Kinetic activity of MmLipN against high-activity ester substrates 1 (black circles), 7 (blue squares), and 20 (red diamonds) and low-activity ester substrates 12 (green circles), 16 (red squares), 27 (purple diamonds), and 31 (orange squares). Low- and high-activity substrates display classic Michaelis–Menten kinetics with MmLipN and activity above background hydrolysis rates. Traces colored based on ester classification from (A, B). All measurements were completed in at least triplicate and shown ± SD.
# [2] = substrate: CCC(=O)OCOc1ccc2c(c1)Oc1cc(OCOC(=O)CC)ccc1C21OC(=O)c2ccccc21
# Description: as §1
# [3] = substrate: COCCOCCC(=O)OCOc1ccc2c(c1)Oc1cc(OCOC(=O)CCOCCOC)ccc1C21OC(=O)c2ccccc21
# Description: as §1
# [4] = substrate: N#CC1(C(=O)OCOc2ccc3c(c2)Oc2cc(OCOC(=O)C4(C#N)CC4)ccc2C32OC(=O)c3ccccc32)CC1
# Description: as §1
# [5] = substrate: N#CCC(=O)OCOc1ccc2c(c1)Oc1cc(OCOC(=O)CC#N)ccc1C21OC(=O)c2ccccc21
# Description: as §1
protein,measurement,setting,value
B1,Km,[1],0.87 ± 1.1 µM
same,kcat,[1],1.1e-05 ± 3e-05 s⁻¹
same,kcat/Km,[1],12 ± 19 M⁻¹ s⁻¹
same,Km,[2],4.2 ± 0.5 µM
same,kcat,[2],0.18 ± 0.06 s⁻¹
same,kcat/Km,[2],42000 ± 15000 M⁻¹ s⁻¹
same,Km,[3],21 ± 4 µM
same,kcat,[3],0.0005 ± 0.0004 s⁻¹
same,kcat/Km,[3],26 ± 11 M⁻¹ s⁻¹
same,Km,[4],1.7 ± 1.1 µM
same,kcat,[4],0.0012 ± 0.0018 s⁻¹
same,kcat/Km,[4],670 ± 590 M⁻¹ s⁻¹
same,Km,[5],3.1 ± 0.6 µM
same,kcat,[5],0.015 ± 0.008 s⁻¹
same,kcat/Km,[5],4900 ± 1400 M⁻¹ s⁻¹
